From patent publication US20260297200
pKd: −log10 of the molar value.

Molecular target: EGFR-His (human ECD) (human)
Assay: BLI

pKd: 8.77
Substance: Cetuximab Fab-His
